Laboratory results as given in US10487348B2, “3-alpha-hydroxysteroid dehydrogenase mutants and process for the preparation of ursodeoxycholic acid” (Pharmazell GmbH, priority 2014, dated 2019).
Where a chain is given by its changes, count along the chain named. In names and notes the source's numbering stands. Marks after values point to notes of the source that are not given here.

B1: Comamonas testosteroni 3α-HSDH, wild type, without His tag, SEQ ID NO:4 (Comamonas testosteroni) (protein)
chain: MSIIVISGCATGIGAATRKVLEAAGHQIVGIDIRDAEVIADLSTAEGRKQAIADVLAKCSKGMDGLVLCAGLGPQTKVLGNVVSVNYFGATELMDAFLPALKKGHQPAAVVISSVASAHLAFDKNPLALALEAGEEAKARAIVEHAGEQGGNLAYAGSKNALTVAVRKRAAAWGEAGVRLNTIAPGATETPLLQAGLQDPRYGESIAKFVPPMGRRAEPSEMASVIAFLMSPAASYVHGAQIVIDGGIDAVMRPTQF
B2: Comamonas testosteroni 3α-HSDH, wild type, C-terminal 3×His tag (Comamonas testosteroni) (protein)
chain: MSIIVISGCATGIGAATRKVLEAAGHQIVGIDIRDAEVIADLSTAEGRKQAIADVLAKCSKGMDGLVLCAGLGPQTKVLGNVVSVNYFGATELMDAFLPALKKGHQPAAVVISSVASAHLAFDKNPLALALEAGEEAKARAIVEHAGEQGGNLAYAGSKNALTVAVRKRAAAWGEAGVRLNTIAPGATETPLLQAGLQDPRYGESIAKFVPPMGRRAEPSEMASVIAFLMSPAASYVHGAQIVIDGGIDAVMRPTQFLEHHH
B3: Comamonas testosteroni 3α-HSDH, wild type, C-terminal 9×His tag (SEQ ID NO: 51) (Comamonas testosteroni) (protein)
chain: MSIIVISGCATGIGAATRKVLEAAGHQIVGIDIRDAEVIADLSTAEGRKQAIADVLAKCSKGMDGLVLCAGLGPQTKVLGNVVSVNYFGATELMDAFLPALKKGHQPAAVVISSVASAHLAFDKNPLALALEAGEEAKARAIVEHAGEQGGNLAYAGSKNALTVAVRKRAAAWGEAGVRLNTIAPGATETPLLQAGLQDPRYGESIAKFVPPMGRRAEPSEMASVIAFLMSPAASYVHGAQIVIDGGIDAVMRPTQFLEHHHHHHHHH
B4: Comamonas testosteroni 3α-HSDH mutant [T188A], N-terminal hexahistidine tag (Comamonas testosteroni; T188A) (protein)
chain: B1 chain with T188A
B5: Comamonas testosteroni 3α-HSDH mutant [T188S], N-terminal hexahistidine tag (Comamonas testosteroni; T188S) (protein)
chain: B1 chain with T188S
B6: Comamonas testosteroni 3α-HSDH mutant [T188G], N-terminal hexahistidine tag (Comamonas testosteroni; T188G) (protein)
chain: B1 chain with T188G
B7: Comamonas testosteroni 3α-HSDH mutant [P185A], N-terminal hexahistidine tag (Comamonas testosteroni; P185A) (protein)
chain: B1 chain with P185A
B8: Comamonas testosteroni 3α-HSDH mutant [L68A], N-terminal hexahistidine tag (Comamonas testosteroni; L68A) (protein)
chain: B1 chain with L68A
B9: Comamonas testosteroni 3α-HSDH dual mutant [P185A/T188A], N-terminal hexahistidine tag (Comamonas testosteroni; P185A/T188A) (protein)
chain: B1 chain with P185A, T188A
B10: Comamonas testosteroni 3α-HSDH dual mutant [L68A/T188A], N-terminal hexahistidine tag (Comamonas testosteroni; L68A/T188A) (protein)
chain: B1 chain with L68A, T188A
B11: Comamonas testosteroni 3α-HSDH dual mutant [L68A/T188S], N-terminal hexahistidine tag (Comamonas testosteroni; L68A/T188S) (protein)
chain: B1 chain with L68A, T188S
B12: Comamonas testosteroni 3α-HSDH, wild type, N-terminal hexahistidine tag (Comamonas testosteroni) (protein)
chain: B1 chain
B13: T188A N: 3α-HSDH mutant T188A with N-terminal hexahistidine tag (protein, UniProt P80702 2-257, looked up, variant T188A)
3-alpha-hydroxysteroid …: SIIVISGCATGIGAATRKVLEAAGHQIVGIDIRDAEVIADLSTAEGRKQAIADVLAKCSKGMDGLVLCAGLGPQTKVLGNVVSVNYFGATELMDAFLPALKKGHQPAAVVISSVASAHLAFDKNPLALALEAGEEAKARAIVEHAGEQGGNLAYAGSKNALTVAVRKRAAAWGEAGVRLNTIAPGAAETPLLQAGLQDPRYGESIAKFVPPMGRRAEPSEMASVIAFLMSPAASYVHGAQIVIDGGIDAVMRPTQF
modifications: N-terminal His6 tag
notes: 3α-HSDH mutant T188A with N-terminal hexahistidine tag
B14: T188S N: 3α-HSDH mutant T188S with N-terminal hexahistidine tag (protein, UniProt P80702 2-257, looked up, variant T188S)
3-alpha-hydroxysteroid …: B13 3-alpha-hydroxysteroid … with A187S
modifications: N-terminal His6 tag
notes: 3α-HSDH mutant T188S with N-terminal hexahistidine tag
B15: L68A N: 3α-HSDH mutant L68A with N-terminal hexahistidine tag (protein, UniProt P80702 2-257, looked up, variant L68A)
3-alpha-hydroxysteroid …: B13 3-alpha-hydroxysteroid … with L67A, A187T
modifications: N-terminal His6 tag
notes: 3α-HSDH mutant L68A with N-terminal hexahistidine tag
B16: L68A/T188A N: 3α-HSDH dual mutant L68A/T188A with N-terminal hexahistidine tag (protein, UniProt P80702 2-257, looked up, variant L68A T188A)
3-alpha-hydroxysteroid …: B13 3-alpha-hydroxysteroid … with L67A
modifications: N-terminal His6 tag
notes: 3α-HSDH dual mutant L68A/T188A with N-terminal hexahistidine tag
B17: L68A/T188S N: 3α-HSDH dual mutant L68A/T188S with N-terminal hexahistidine tag (protein, UniProt P80702 2-257, looked up, variant L68A T188S)
3-alpha-hydroxysteroid …: B13 3-alpha-hydroxysteroid … with L67A, A187S
modifications: N-terminal His6 tag
notes: 3α-HSDH dual mutant L68A/T188S with N-terminal hexahistidine tag
B18: P185A/T188A N: 3α-HSDH dual mutant P185A/T188A with N-terminal hexahistidine tag (protein, UniProt P80702 2-257, looked up, variant P185A T188A)
3-alpha-hydroxysteroid …: B13 3-alpha-hydroxysteroid … with P184A
modifications: N-terminal His6 tag
notes: 3α-HSDH dual mutant P185A/T188A with N-terminal hexahistidine tag

Key:
[1] = substrate: C[C@H](CCC(=O)O)[C@H]1CC[C@H]2[C@@H]3C(=O)C[C@@H]4CC(=O)CC[C@]4(C)[C@H]3CC(=O)[C@]12C; test: cells, lysate or membranes named; details: pH 8.0, 25.0 °C
[2] = substrate: NC(=O)C1=CN([C@@H]2O[C@H](COP(=O)(O)OP(=O)(O)OC[C@H]3O[C@@H](n4cnc5c(N)ncnc54)[C@H](O)[C@@H]3O)[C@@H](O)[C@H]2O)C=CC1; test: purified protein, by the assay type; details: other: Table 15, substrate NADH, apparent values, pH 8.0
[3] = substrate: C[C@H](CCC(=O)O)[C@H]1CC[C@H]2[C@@H]3C(=O)C[C@@H]4CC(=O)CC[C@]4(C)[C@H]3CC(=O)[C@]12C; test: purified protein, by the assay type; details: other: Table 14, substrate DHCA, tag N, apparent values, pH 8.0
[4] = substrate: C[C@H](CCC(=O)O)[C@H]1CC[C@H]2[C@@H]3C(=O)C[C@@H]4CC(=O)CC[C@]4(C)[C@H]3CC(=O)[C@]12C; test: Kinetics of 3α-HSDH [T188G], N-terminal His tag; format: biochemical, Comamonas testosteroni; details: other: Table 14, substrate DHCA, apparent values, pH 8.0
Procedure: (§1) The activity of the 3α-HSDH and of the mutants was determined using a photometric assay, where the decrease in absorbance was measured at 340 nm over a period of 30 seconds.
(§2) The targeted exchange of amino acid radicals was performed analogously to Example 2B.
(§3) Following cultivation and expression, the cells were harvested, and the specific activities of the cell-free crude extracts were determined at substrate concentrations of 10 mM DHCA. The enzyme variants where the activity measurements with crude extract enzyme were most promising were purified by means of Ni-NTA chromatography, and their kinetic constants were determined by measurements with different DHCA concentrations of between 10 μM and 20 mM. In addition, an expression check by means of SDS PAGE was carried out for all mutants.

[5] = substrate: NC(=O)C1=CN([C@@H]2O[C@H](COP(=O)(O)OP(=O)(O)OC[C@H]3O[C@@H](n4cnc5c(N)ncnc54)[C@H](O)[C@@H]3O)[C@@H](O)[C@H]2O)C=CC1; test: Michaelis-Menten kinetics of wild-type 3α-HSDH with N-terminal His tag; format: biochemical, Comamonas testosteroni; details: other: Table 15, substrate NADH, apparent values, pH 8.0
Source text: The His-tag allows for very simple purification of the HSDH protein since this sequence is bound with high specificity by specific chromatographic material (NTA (Ni-nitrilotriacetate)-modified support material, loaded with divalent nickel ions, for example “His Pur Ni-NTA” (Nimagen B. V., Nijmegen, The Netherlands)). To this end, the cell-free crude extract is applied to a dropping column comprising this material, which dropping column has previously been equilibrated with the disruption buffer (3 to 5 column volumes). Weakly binding protein was removed by washing with 3 to 5 column volumes of wash buffer (20 mM imidazole, 50 mM sodium phosphate, 300 mM NaCl, pH 8). The His-tag-3α-HSDH protein was eluted with imidazole-comprising elution buffer (250 mM imidazole, 50 mM sodium phosphate, 300 mM NaCl, pH 8). The process was carried out at room temperature. The imidazole which was present was to be removed by buffer exchange.
as §1, §2
as §3, with “and their kinetic constants were determined by measurements with different DHCA concentrations of between 10 μM and 20 mM.” left out

[6] = test system: 3α-HSDH; substrate DHCA; format: biochemical, Comamonas testosteroni; details: for DHCA substrate concentration at maximum specific activity / substrate excess inhibition: purified enzyme variant
[7] = other: crude extract (without His tag), DHCA, read from the diagram

Row | Molecule | Km ([2]; tag N) | Vmax ([2]; tag N) | kcat ([2]; tag N) | kcat/Km ([2]; tag N) | Km [3] | DHCA substrate concentration at maximum specific activity [6] | substrate excess inhibition ([6]; substrate DHCA) | also measured
1 | B1 | – | – | – | – | – | – | – | Km [1, 7]: 200* μM; Vmax [1, 7]: 25 µmol/min/mg; Km ([2]; without tag, 25.0 °C): 46.9 ± 5.9 µM; Vmax ([2]; without tag, 25.0 °C): 186 µmol/min/mg; kcat ([2]; without tag, 25.0 °C): 88.5 s⁻¹; kcat/Km ([2]; without tag, 25.0 °C): 1.88e+06 M⁻¹ s⁻¹
2 | B2 | – | – | – | – | – | – | – | Km ([1]; other: His tag length 3, DHCA 10 μM-10 mM, NADH 0.2 mM, purified): 997.9 ± 483 µM
3 | B3 | – | – | – | – | – | – | – | Km ([1]; other: His tag length 9, DHCA 10 μM-10 mM, NADH 0.2 mM, purified): 70.5 ± 14.2 µM
4 | B4 | 111.5 ± 18.2 µM | 237 µmol/min/mg | 130 s⁻¹ | 1.17e+06 M⁻¹ s⁻¹ | 94.5 ± 11 µM | – | – | –
5 | B5 | 87.6 ± 29.7 µM | 147 µmol/min/mg | 96.1 s⁻¹ | 1.1e+06 M⁻¹ s⁻¹ | 312.6 ± 112 µM | – | – | –
6 | B6 | – | – | – | – | – | – | – | Km [4]: 1458 ± 182.6 µM; Vmax [4]: 20.3 ± 0.8 U/mg; kcat [4]: 9.6 s⁻¹
7 | B7 | – | – | – | – | 71.0 ± 11 µM | – | – | –
8 | B8 | 17.1 ± 3.7 µM | 138 µmol/min/mg | 110 s⁻¹ | 6.46e+06 M⁻¹ s⁻¹ | – | – | – | Km ([3]; NADH 0.2 mM): 75.4 ± 22.6 µM
9 | B9 | 333.9 ± 137.5 µM | 85.9 µmol/min/mg | 17.6 s⁻¹ | 52600 M⁻¹ s⁻¹ | 66.9 ± 15 µM | – | – | –
10 | B10 | 67.5 ± 4.7 µM | 229 µmol/min/mg | 111 s⁻¹ | 1.65e+06 M⁻¹ s⁻¹ | 164.4 ± 20.4 µM | – | – | –
11 | B11 | 47.4 ± 2.6 µM | 188 µmol/min/mg | 91.8 s⁻¹ | 1.94e+06 M⁻¹ s⁻¹ | 169.6 ± 22.6 µM | – | – | –
12 | B12 | – | – | – | – | – | – | – | Km [5]: 59.2 ± 6.9 µM; Vmax [5]: 109 µmol/min/mg; kcat [5]: 47.1 s⁻¹; kcat/Km [5]: 796000 M⁻¹ s⁻¹
13 | B13 | – | – | – | – | – | 0.5 mM | pronounced substrate excess inhibition | –
14 | B14 | – | – | – | – | – | 0.5 mM | substrate excess inhibition is observed | –
15 | B15 | – | – | – | – | – | 0.1 mM | pronounced substrate excess inhibition | –
16 | B16 | – | – | – | – | – | 0.5 mM | less pronounced substrate excess inhibition | –
17 | B17 | – | – | – | – | – | 0.5 mM | pronounced substrate excess inhibition | –
18 | B18 | – | – | – | – | – | 0.5 mM | substrate excess inhibition was observed | activities compared with the corresponding single mutants ([6]; substrate DHCA): markedly lower
